Results from the supplement of paper PMC7877785.
± gives the uncertainty stated by the source.

Assay: self-splicing fitness, log relative to wild type (ln ratio); higher = more splicing; Tetrahymena group I intron in knt gene, E. coli kanamycin selection, DiMSum; sequences stand for … in CUCUCU…GGAGGGAAAAGUUAUCAGGCAUGCACCUGGUAGCUAGUCUUUAAACCAAUAGAUUGCAUCGGUUUAAAAGGCAAGACCGUCAAAUUGCGGGAAAGGGGUCAACAGCCGUUCAGUACCAAGUCUCAGGGGAAACUUUGAGAUGGCCUUGCAAAGGGUAUGGUAAUAAGCUGACGGACAUGGUCCUAACCACGCAGCCAAGUCCUAAGUCAACAGAUCUUCUGUUGAUAUGGAUGCAGUUCACAGACUAAAUGUCGGUCGGGGAAGAUGUAUUCUUCUCAUAAGAUAUAGUCGGACCUCUCCUUAAUGGGAGCUAGCGGAUGAAGUGAUGCAACACUGGAGCCGCUGGGAACUAAUUUGUAUGCGAAAGUAUAUUGAUUAGUUUUGGAGUACUCGUGGUCG
Summary of the method: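 DiMSum derived fitness as the error-weighted combination of fold changes across replicates, kanamycin versus no kanamycin, normalised to wild type. E. coli BL21(DE3) held the library, which randomised all eight P1ex-region intron nucleotides within the knt kanamycin-resistance gene on pET-22b(+). Six replicate transformations grew overnight at 37°C or 30°C on LB agar with or without 25 μg/mL kanamycin, also containing 100 μg/mL carbenicillin, 50 μM IPTG and 0.2% rhamnose, and pooled colonies were amplicon-sequenced on an Illumina HiSeq 2500.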

Row | Sequence | self-splicing fitness (ln) (30 °C) | self-splicing fitness (ln) (37 °C)
1 | GCUUAGCAAUAUUACGCUUA | -0.849 ± 0.11 | -0.925 ± 0.14
2 | CACGAGCAAUAUUACGUCUA | -1.3 ± 0.32 | -1.55 ± 0.27
3 | UCAAAGCAAUAUUACGGUUC | -4.38 ± 0.22 | -2.5 ± 0.15
4 | GCUUAGCAAUAUUACGCUUC | -3.27 ± 0.47 | -1.54 ± 0.29
5 | UUCUAGCAAUAUUACGUACC |  | -0.136 ± 0.48
6 | ACCCAGCAAUAUUACGUGCG | -3.12 ± 0.13 | -1.85 ± 0.098
7 | UAUGAGCAAUAUUACGUAGU | -3.67 ± 0.28 | -1.99 ± 0.21
8 | UGAAAGCAAUAUUACGUCCC | -2.54 ± 0.45 | 
9 | CCUGAGCAAUAUUACGUGUU | -4.7 ± 0.34 | -2.52 ± 0.17
10 | AAAAAGCAAUAUUACGAAAG | -2.31 ± 0.098 | -1.03 ± 0.12
11 | CGGCAGCAAUAUUACGUCUU | -1.09 ± 0.066 | 0.328 ± 0.086
12 | GCCCAGCAAUAUUACGUGUA | -0.725 ± 0.046 | -0.0902 ± 0.058
13 | GUCCAGCAAUAUUACGGCCA | -0.678 ± 0.13 | -0.279 ± 0.14
14 | CUCCAGCAAUAUUACGCUGG | -1.92 ± 0.23 | 
15 | CGUCAGCAAUAUUACGUGUG | -0.543 ± 0.059 | -0.104 ± 0.068
16 | UCUCAGCAAUAUUACGUCGA | -2.07 ± 0.11 | -0.925 ± 0.12
17 | CCAAAGCAAUAUUACGUUGU | -3.77 ± 0.12 | -2.44 ± 0.12
18 | GCUUAGCAAUAUUACGUUGA | -2.65 ± 0.2 | -1.15 ± 0.16
19 | AAGGAGCAAUAUUACGCAGG | -3.65 ± 0.32 | -2.22 ± 0.39
20 | ACUGAGCAAUAUUACGAUUC | -2.78 ± 0.5 | -1.57 ± 0.31
21 | AGCAAGCAAUAUUACGAACG | -0.526 ± 0.083 | -0.449 ± 0.1
22 | GUGGAGCAAUAUUACGGUCG | -4.21 ± 0.43 | -1.5 ± 0.45
23 | UAGUAGCAAUAUUACGACCG | -0.133 ± 0.16 | 0.109 ± 0.16
24 | UAGGAGCAAUAUUACGUUAU | -4.64 ± 0.22 | -2.85 ± 0.15
25 | CUUUAGCAAUAUUACGGGCG | -0.935 ± 0.12 | 0.00294 ± 0.15
26 | CAUGAGCAAUAUUACGUCAA | -4.04 ± 0.33 | -2.64 ± 0.33

Row | Sequence | self-splicing fitness (ln) (30 °C) | self-splicing fitness (ln) (37 °C)
27 | GUCAAGCAAUAUUACGAGAU | -5.3 ± 0.38 | -3.28 ± 0.2
28 | AGCGAGCAAUAUUACGCAUA |  | -1.77 ± 0.24
29 | UACGAGCAAUAUUACGAGAA | -2.33 ± 0.35 | 
30 | AUGUAGCAAUAUUACGAGUA | -2.73 ± 0.17 | -1.72 ± 0.13
31 | UUGCAGCAAUAUUACGACUC | -1.2 ± 0.11 | -0.0756 ± 0.12
32 | AACGAGCAAUAUUACGAUGC | -2.93 ± 0.2 | -1.52 ± 0.26
33 | GCUAAGCAAUAUUACGCGUU | -1.23 ± 0.083 | -0.649 ± 0.1
34 | AAACAGCAAUAUUACGCAUC | -2.82 ± 0.13 | -2.07 ± 0.11
35 | ACUGAGCAAUAUUACGCCCU | -1.87 ± 0.33 | -1.05 ± 0.44
36 | GUGUAGCAAUAUUACGAUAG | -3.84 ± 0.27 | -0.946 ± 0.19
37 | AACCAGCAAUAUUACGAGAU | -1.96 ± 0.078 | -0.239 ± 0.083
38 | UUAGAGCAAUAUUACGGUGG | -1.95 ± 0.12 | -0.679 ± 0.13
39 | GAACAGCAAUAUUACGGAGG | -3.02 ± 0.14 | -2.54 ± 0.2
40 | GUCGAGCAAUAUUACGCUCU | -1.61 ± 0.24 | -1.39 ± 0.23
41 | ACGCAGCAAUAUUACGGGCU | -2.46 ± 0.11 | -1.36 ± 0.12
42 | AUAAAGCAAUAUUACGCAGC | -3.55 ± 0.4 | -1.04 ± 0.28
43 | CGCAAGCAAUAUUACGACAU | -2.999 ± 0.017 | -1.77 ± 0.034
44 | AGCGAGCAAUAUUACGAAGU | -3.59 ± 0.29 | -1.57 ± 0.21
45 | AGCCAGCAAUAUUACGGUCC | -1.12 ± 0.081 | -0.461 ± 0.12
46 | CAACAGCAAUAUUACGCUGC | -3.4 ± 0.23 | -2.21 ± 0.36
47 | GAAUAGCAAUAUUACGAUGC | -1.02 ± 0.095 | -0.245 ± 0.12
48 | AGGAAGCAAUAUUACGGGGC | -3.49 ± 0.26 | -2.49 ± 0.24
49 | AUAUAGCAAUAUUACGUUCU | -1.47 ± 0.18 | -0.302 ± 0.21
50 | UGCGAGCAAUAUUACGCCCU | -0.783 ± 0.39 | 
51 | CCAAAGCAAUAUUACGUUGA | -3.42 ± 0.29 | -0.401 ± 0.14
52 | GGCGAGCAAUAUUACGGUGC | -2.76 ± 0.16 | -1.86 ± 0.23

Row | Sequence | self-splicing fitness (ln) (30 °C) | self-splicing fitness (ln) (37 °C)
53 | CGAAAGCAAUAUUACGACAC | -2.69 ± 0.18 | -1.56 ± 0.26
54 | AACGAGCAAUAUUACGAUAA | -3.76 ± 0.2 | -2.94 ± 0.21
55 | CGUAAGCAAUAUUACGAUAC |  | -2.9 ± 0.47
56 | ACCAAGCAAUAUUACGGUCA | -1.36 ± 0.082 | -0.9 ± 0.086
57 | CACCAGCAAUAUUACGCUAC | -5.01 ± 0.45 | -2.1 ± 0.16
58 | UACAAGCAAUAUUACGAAUG | -0.773 ± 0.065 | -0.319 ± 0.086
59 | CACGAGCAAUAUUACGUCAA | -2.34 ± 0.17 | -2.13 ± 0.23
60 | GGGUAGCAAUAUUACGGCGG | -2.35 ± 0.24 | -2.12 ± 0.28
61 | GCGCAGCAAUAUUACGGAGU | -2 ± 0.11 | -0.744 ± 0.13
62 | AUCUAGCAAUAUUACGCUCG | -0.792 ± 0.091 | -0.0276 ± 0.12
63 | UCCAAGCAAUAUUACGACCU | -2.9 ± 0.26 | -1.95 ± 0.26
64 | CAGAAGCAAUAUUACGGUUC | -3.71 ± 0.19 | -2.49 ± 0.2
65 | GUGAAGCAAUAUUACGACAA | 0.0822 ± 0.12 | 0.396 ± 0.16
66 | GUUCAGCAAUAUUACGUGCC | -2.59 ± 0.2 | -1.19 ± 0.19
67 | AAUGAGCAAUAUUACGCUGU | -1.84 ± 0.34 | -2.21 ± 0.4
68 | GCCCAGCAAUAUUACGAUUA | -1.71 ± 0.1 | -0.936 ± 0.089
69 | UUGGAGCAAUAUUACGCGUG | -3.03 ± 0.18 | -0.323 ± 0.087
70 | CGUAAGCAAUAUUACGCUAU | -3.13 ± 0.27 | -4.43 ± 0.42
71 | AUAAAGCAAUAUUACGCCGG | -0.516 ± 0.13 | -0.807 ± 0.17
72 | UAAGAGCAAUAUUACGUCAA | -3.41 ± 0.25 | -2.36 ± 0.18
73 | CCCUAGCAAUAUUACGACGA | -3.12 ± 0.24 | -2.61 ± 0.27
74 | UAUAAGCAAUAUUACGGUCC | -0.922 ± 0.44 | 
75 | ACGAAGCAAUAUUACGGGCU | -0.943 ± 0.1 | -1.67 ± 0.16
76 | CUGAAGCAAUAUUACGACGG | -0.289 ± 0.15 | -0.879 ± 0.14
77 | GGUAAGCAAUAUUACGUCUU | -0.148 ± 0.1 | -0.802 ± 0.12
